{"source": "paper PMC2807882", "about": "“Conservation of DNA-binding specificity and oligomerisation properties within the p53 family”", "binders": {"B1": {"name": "Ref competitor (dsDNA)", "DNA 1": "CGCGGACATGTCCGGACATGTCCCGC", "DNA 2": "GCGGGACATGTCCGGACATGTCCGCG"}}, "assay_in_all_cases": "fluorescence anisotropy competition titration; 25 mM sodium phosphate (purification buffer pH 7.2), 225 mM NaCl, 10% v/v glycerol, 5 mM DTT, 0.2 mg/mL BSA, 22 C", "settings_in_all_cases": "protein: recombinant; tags: N-terminal 6xHis-lipoyl-TEV tag, cleaved; chain copies: 4", "key": {"ΔNp63γ": {"biological_target": "T1, ΔNp63γ (Homo sapiens, UniProt Q9H3D4-6 1-393)", "T1 sequence": "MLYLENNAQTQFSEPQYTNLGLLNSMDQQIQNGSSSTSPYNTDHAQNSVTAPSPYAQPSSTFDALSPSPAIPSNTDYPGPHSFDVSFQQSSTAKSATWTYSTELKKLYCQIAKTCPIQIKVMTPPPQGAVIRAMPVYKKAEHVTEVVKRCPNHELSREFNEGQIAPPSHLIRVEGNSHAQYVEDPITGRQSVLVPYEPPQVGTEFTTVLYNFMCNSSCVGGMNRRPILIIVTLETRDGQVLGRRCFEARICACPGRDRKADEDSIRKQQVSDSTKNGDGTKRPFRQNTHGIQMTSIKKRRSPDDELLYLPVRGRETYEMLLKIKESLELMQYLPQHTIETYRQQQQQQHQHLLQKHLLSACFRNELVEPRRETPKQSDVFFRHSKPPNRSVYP"}, "Mmp53": {"biological_target": "Mmp53 (Mus musculus, UniProt P02340 1-390)", "sequence (P02340 whole entry)": "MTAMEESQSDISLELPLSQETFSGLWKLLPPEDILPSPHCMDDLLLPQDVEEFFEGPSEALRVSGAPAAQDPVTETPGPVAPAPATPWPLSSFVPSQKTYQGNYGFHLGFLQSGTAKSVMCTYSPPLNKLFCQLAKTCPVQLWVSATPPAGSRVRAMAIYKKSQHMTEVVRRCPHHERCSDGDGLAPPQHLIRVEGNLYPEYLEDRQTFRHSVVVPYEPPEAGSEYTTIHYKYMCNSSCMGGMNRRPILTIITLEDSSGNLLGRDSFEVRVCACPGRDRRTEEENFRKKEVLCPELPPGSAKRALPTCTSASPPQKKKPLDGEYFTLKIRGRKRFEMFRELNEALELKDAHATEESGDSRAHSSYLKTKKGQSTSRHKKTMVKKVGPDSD"}, "ΔNp63α": {"biological_target": "T2, ΔNp63α (Homo sapiens, UniProt Q9H3D4-2 1-586)", "T2 sequence": "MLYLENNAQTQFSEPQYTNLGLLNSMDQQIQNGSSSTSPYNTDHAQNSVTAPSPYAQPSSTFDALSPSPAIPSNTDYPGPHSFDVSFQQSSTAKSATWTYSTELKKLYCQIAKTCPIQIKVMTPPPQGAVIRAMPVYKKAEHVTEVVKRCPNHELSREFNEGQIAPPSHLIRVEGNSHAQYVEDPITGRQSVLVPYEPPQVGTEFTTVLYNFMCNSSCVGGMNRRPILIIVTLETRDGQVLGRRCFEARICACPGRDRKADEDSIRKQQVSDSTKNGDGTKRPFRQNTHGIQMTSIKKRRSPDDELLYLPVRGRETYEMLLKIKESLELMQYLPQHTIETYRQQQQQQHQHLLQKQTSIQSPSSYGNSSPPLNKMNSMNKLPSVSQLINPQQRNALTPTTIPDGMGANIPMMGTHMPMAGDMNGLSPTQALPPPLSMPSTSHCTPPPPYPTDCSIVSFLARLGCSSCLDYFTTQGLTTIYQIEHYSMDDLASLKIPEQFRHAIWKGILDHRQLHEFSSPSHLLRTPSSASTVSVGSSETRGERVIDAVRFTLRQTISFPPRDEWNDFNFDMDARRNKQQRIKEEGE"}, "Hsp53": {"biological_target": "Hsp53 (Homo sapiens, UniProt P04637 1-393)", "sequence (P04637 whole entry)": "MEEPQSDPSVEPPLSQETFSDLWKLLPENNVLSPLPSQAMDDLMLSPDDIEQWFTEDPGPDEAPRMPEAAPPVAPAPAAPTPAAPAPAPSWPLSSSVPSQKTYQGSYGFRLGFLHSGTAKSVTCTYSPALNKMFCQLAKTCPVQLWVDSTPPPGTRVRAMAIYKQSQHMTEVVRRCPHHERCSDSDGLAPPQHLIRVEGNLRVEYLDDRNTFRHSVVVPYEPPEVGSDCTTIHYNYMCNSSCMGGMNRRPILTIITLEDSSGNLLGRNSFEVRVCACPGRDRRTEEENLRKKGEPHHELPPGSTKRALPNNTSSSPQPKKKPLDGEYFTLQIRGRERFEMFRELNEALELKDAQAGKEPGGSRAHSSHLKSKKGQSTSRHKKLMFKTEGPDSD"}, "Dmp53": {"biological_target": "T3, Dmp53 (Drosophila melanogaster, UniProt Q9N6D8 1-385)", "T3 sequence": "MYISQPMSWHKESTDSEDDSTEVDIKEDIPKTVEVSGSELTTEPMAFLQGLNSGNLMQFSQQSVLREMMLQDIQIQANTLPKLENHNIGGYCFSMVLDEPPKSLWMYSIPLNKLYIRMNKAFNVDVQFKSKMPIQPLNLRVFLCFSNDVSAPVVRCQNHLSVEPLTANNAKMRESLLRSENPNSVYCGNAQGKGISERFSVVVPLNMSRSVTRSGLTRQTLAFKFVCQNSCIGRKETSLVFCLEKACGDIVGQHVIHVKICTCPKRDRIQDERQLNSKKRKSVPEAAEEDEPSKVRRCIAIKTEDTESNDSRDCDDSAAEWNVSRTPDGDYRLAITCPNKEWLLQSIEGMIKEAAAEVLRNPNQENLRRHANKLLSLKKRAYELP"}, "Xlp53": {"biological_target": "Xlp53 (Xenopus laevis, UniProt Q7T1D0 1-362)", "sequence (Q7T1D0 entry or part of it)": "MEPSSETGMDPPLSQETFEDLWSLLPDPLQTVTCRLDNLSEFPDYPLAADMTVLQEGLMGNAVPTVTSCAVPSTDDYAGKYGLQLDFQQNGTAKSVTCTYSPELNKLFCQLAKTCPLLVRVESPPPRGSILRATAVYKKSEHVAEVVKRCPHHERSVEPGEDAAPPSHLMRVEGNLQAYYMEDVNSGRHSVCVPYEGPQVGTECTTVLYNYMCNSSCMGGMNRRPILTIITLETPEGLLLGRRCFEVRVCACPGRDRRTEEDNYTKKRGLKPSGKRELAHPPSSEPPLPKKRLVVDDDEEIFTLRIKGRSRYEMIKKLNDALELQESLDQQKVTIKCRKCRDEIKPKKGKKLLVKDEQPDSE"}, "ΔNp63β": {"biological_target": "T4, ΔNp63β (Homo sapiens, UniProt Q9H3D4-4 1-461)", "T4 sequence": "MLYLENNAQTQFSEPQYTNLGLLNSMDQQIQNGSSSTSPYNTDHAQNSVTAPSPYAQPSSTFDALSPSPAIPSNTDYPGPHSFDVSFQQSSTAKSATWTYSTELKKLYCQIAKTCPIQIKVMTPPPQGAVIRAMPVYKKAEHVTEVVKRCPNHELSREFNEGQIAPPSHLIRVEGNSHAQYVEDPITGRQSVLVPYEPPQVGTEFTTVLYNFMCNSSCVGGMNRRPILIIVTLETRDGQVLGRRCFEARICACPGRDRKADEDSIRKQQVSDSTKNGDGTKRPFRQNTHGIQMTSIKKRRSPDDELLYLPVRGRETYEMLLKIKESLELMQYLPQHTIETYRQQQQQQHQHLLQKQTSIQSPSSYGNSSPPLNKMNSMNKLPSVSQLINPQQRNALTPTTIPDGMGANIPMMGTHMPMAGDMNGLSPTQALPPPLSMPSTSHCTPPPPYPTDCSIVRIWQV"}}, "data": [{"binder": "B1", "values": [{"measurement": "Kd", "setting": "ΔNp63γ", "value": 33.1, "unit": "nM"}, {"measurement": "Kd", "setting": "Mmp53", "value": 132, "unit": "nM"}, {"measurement": "Kd", "setting": "ΔNp63α", "value": 61.7, "unit": "nM"}, {"measurement": "Kd", "setting": "Hsp53", "value": 75.9, "unit": "nM"}, {"measurement": "Kd", "setting": "Dmp53", "value": 27.5, "unit": "nM"}, {"measurement": "Kd", "setting": "Xlp53", "value": 83.2, "unit": "nM"}, {"measurement": "Kd", "setting": "ΔNp63β", "value": 35.5, "unit": "nM"}]}]}
